Measured values published in US20230295597.

T1: von Willebrand factor (vWF), substrate of the ADAMTS-13 activity assay, P04275
T1 chain: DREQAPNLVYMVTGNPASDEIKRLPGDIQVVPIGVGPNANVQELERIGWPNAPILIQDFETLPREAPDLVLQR


Key:
[1] = biological target: T1, von Willebrand factor (vWF), substrate …
[2] = biological target: anti ADAMTS-13 autoantibodies in plasma from patients with acquired ADAMTS-13 deficiency (TTP plasma)
[3] = biological target: ultralarge von Willebrand factor multimers present in human plasma, P04275

Row | Protein | catalytic activity on vWF [1] | further results
1 | trADAMTS-13^V313D (truncated ADAMTS-13 mutant, Val313 to Asp) (protein) AAGGILHLELLVAVGPDVFQAHQEDTERYVLTNLNIGAELLRDPSLGAQFRVHLVKMVILTEPEGAPNITANLTSSLLSVCGWSQTINPEDDTDPGHADLVLYITRFDLELPDGNRQVRGVTQLGGACSPTWSCLITEDTGFDLGVTIAHEIGHSFGLEHDGAPGSGCGPSGHVMASDGAAPRAGLAWSPCSRRQLLSLLSAGRARCVWDPPRPQPGSAGHPPDAQPGLYYSANEQCRDAFGPKAVACTFAREHLDMCQALSCHTDPLDQSSCSRLLVPLLDGTECGVEKWCSKGRCRSLVELTPIAAVHGRWSSWGPRSPCSRSCGGGVVTRRRQCNNPRPAFGGRACVGADLQAEMCNTQACEKTQLEFMSQQCARTDGQPLRSSPGGASFYHWGAAVPHSQGDALCRHMCRAIGESFIMKRGDSFLDGTRCMPSGPREDGTLSLCVSGSCRTFGCDGRMDSQQVWDRCQVCGGDNSTCSPRKGSFTAGRAREYVTFLTVTPNLTSVYIANHRPLFTHLAVRIGGRYVVAGKMSISPNTTYPSLLEDGRVEYRVALTEDRLPRLEEIRIWGPLQEDADIQVYRRYGEEYGNLTRPDITFTYFQPKPRQADYKDHDGDYKDHDIDYKDDDDK | – | decrease of proteolytic activity on vWF against the un-mutated variant [1]: replacing V^313 with D (trADAMTS-13^V313D) decreased by more than 50% the proteolytic activity of the resultant ADAMTS-13 variant on vWF (FIG. 6B)
2 | trADAMTS-13^R312K (truncated ADAMTS-13 mutant, Arg312 to Lys) (protein) AAGGILHLELLVAVGPDVFQAHQEDTERYVLTNLNIGAELLRDPSLGAQFRVHLVKMVILTEPEGAPNITANLTSSLLSVCGWSQTINPEDDTDPGHADLVLYITRFDLELPDGNRQVRGVTQLGGACSPTWSCLITEDTGFDLGVTIAHEIGHSFGLEHDGAPGSGCGPSGHVMASDGAAPRAGLAWSPCSRRQLLSLLSAGRARCVWDPPRPQPGSAGHPPDAQPGLYYSANEQCKVAFGPKAVACTFAREHLDMCQALSCHTDPLDQSSCSRLLVPLLDGTECGVEKWCSKGRCRSLVELTPIAAVHGRWSSWGPRSPCSRSCGGGVVTRRRQCNNPRPAFGGRACVGADLQAEMCNTQACEKTQLEFMSQQCARTDGQPLRSSPGGASFYHWGAAVPHSQGDALCRHMCRAIGESFIMKRGDSFLDGTRCMPSGPREDGTLSLCVSGSCRTFGCDGRMDSQQVWDRCQVCGGDNSTCSPRKGSFTAGRAREYVTFLTVTPNLTSVYIANHRPLFTHLAVRIGGRYVVAGKMSISPNTTYPSLLEDGRVEYRVALTEDRLPRLEEIRIWGPLQEDADIQVYRRYGEEYGNLTRPDITFTYFQPKPRQADYKDHDGDYKDHDIDYKDDDDK | trADAMTS-13^R312K was the most potent variant exhibiting enhanced proteolytic activity on vWF (FIG. 6B), in comparison with the un-mutated protein trADAMTS-13 WT | proteolytic activity on vWF after 2 hours or 24 hours with TTP plasma [2]: The substantial resistance to inhibition of trADAMTS-13^R312K was shown around 2 hours up to 24 hours following incubation with TTP plasma (FIG. 9B)
3 | trADAMTS-13^V313A (truncated ADAMTS-13 mutant, Val313 to Ala) (protein) AAGGILHLELLVAVGPDVFQAHQEDTERYVLTNLNIGAELLRDPSLGAQFRVHLVKMVILTEPEGAPNITANLTSSLLSVCGWSQTINPEDDTDPGHADLVLYITRFDLELPDGNRQVRGVTQLGGACSPTWSCLITEDTGFDLGVTIAHEIGHSFGLEHDGAPGSGCGPSGHVMASDGAAPRAGLAWSPCSRRQLLSLLSAGRARCVWDPPRPQPGSAGHPPDAQPGLYYSANEQCRAAFGPKAVACTFAREHLDMCQALSCHTDPLDQSSCSRLLVPLLDGTECGVEKWCSKGRCRSLVELTPIAAVHGRWSSWGPRSPCSRSCGGGVVTRRRQCNNPRPAFGGRACVGADLQAEMCNTQACEKTQLEFMSQQCARTDGQPLRSSPGGASFYHWGAAVPHSQGDALCRHMCRAIGESFIMKRGDSFLDGTRCMPSGPREDGTLSLCVSGSCRTFGCDGRMDSQQVWDRCQVCGGDNSTCSPRKGSFTAGRAREYVTFLTVTPNLTSVYIANHRPLFTHLAVRIGGRYVVAGKMSISPNTTYPSLLEDGRVEYRVALTEDRLPRLEEIRIWGPLQEDADIQVYRRYGEEYGNLTRPDITFTYFQPKPRQADYKDHDGDYKDHDIDYKDDDDK | Replacing V^313 with A (trADAMTS-13^V313A), also had no significant effect on its proteolytic activity on vWF (FIG. 6B) | –
4 | trADAMTS-13^R312A (truncated ADAMTS-13 mutant, Arg312 to Ala) (protein) AAGGILHLELLVAVGPDVFQAHQEDTERYVLTNLNIGAELLRDPSLGAQFRVHLVKMVILTEPEGAPNITANLTSSLLSVCGWSQTINPEDDTDPGHADLVLYITRFDLELPDGNRQVRGVTQLGGACSPTWSCLITEDTGFDLGVTIAHEIGHSFGLEHDGAPGSGCGPSGHVMASDGAAPRAGLAWSPCSRRQLLSLLSAGRARCVWDPPRPQPGSAGHPPDAQPGLYYSANEQCAVAFGPKAVACTFAREHLDMCQALSCHTDPLDQSSCSRLLVPLLDGTECGVEKWCSKGRCRSLVELTPIAAVHGRWSSWGPRSPCSRSCGGGVVTRRRQCNNPRPAFGGRACVGADLQAEMCNTQACEKTQLEFMSQQCARTDGQPLRSSPGGASFYHWGAAVPHSQGDALCRHMCRAIGESFIMKRGDSFLDGTRCMPSGPREDGTLSLCVSGSCRTFGCDGRMDSQQVWDRCQVCGGDNSTCSPRKGSFTAGRAREYVTFLTVTPNLTSVYIANHRPLFTHLAVRIGGRYVVAGKMSISPNTTYPSLLEDGRVEYRVALTEDRLPRLEEIRIWGPLQEDADIQVYRRYGEEYGNLTRPDITFTYFQPKPRQADYKDHDGDYKDHDIDYKDDDDK | trADAMTS-13^R312A catalytic activity was not affected significantly by replacing R^312 with A (FIG. 6B) | –
5 | truncated recombinant human ADAMTS-13 variant (MDTCS), trADAMTS-13 WT (protein) RSAAGGILHLELLVAVGPDVFQAHQEDTERYVLTNLNIGAELLRDPSLGAQFRVHLVKMVILTEPEGAPNITANLTSSLLSVCGWSQTINPEDDTDPGHADLVLYITRFDLELPDGNRQVRGVTQLGGACSPTWSCLITEDTGFDLGVTIAHEIGHSFGLEHDGAPGSGCGPSGHVMASDGAAPRAGLAWSPCSRRQLLSLLSAGRARCVWDPPRPQPGSAGHPPDAQPGLYYSANEQCRVAFGPKAVACTFAREHLDMCQALSCHTDPLDQSSCSRLLVPLLDGTECGVEKWCSKGRCRSLVELTPIAAVHGRWSSWGPRSPCSRSCGGGVVTRRRQCNNPRPAFGGRACVGADLQAEMCNTQACEKTQLEFMSQQCARTDGQPLRSSPGGASFYHWGAAVPHSQGDALCRHMCRAIGESFIMKRGDSFLDGTRCMPSGPREDGTLSLCVSGSCRTFGCDGRMDSQQVWDRCQVCGGDNSTCSPRKGSFTAGRAREYVTFLTVTPNLTSVYIANHRPLFTHLAVRIGGRYVVAGKMSISPNTTYPSLLEDGRVEYRVALTEDRLPRLEEIRIWGPLQEDADIQVYRRYGEEYGNLTRPDITFTYFQPKPRQADYKDHDGDYKDHDIDYKDDDDK | – | proteolysis of vWF multimers in human plasma, trADAMTS-13 300 nM, Western blot with anti-vWF antibody [3]: the inactivation of trADAMTS-13 by tPA prevented the proteolysis of ULvWV multimers present in human plasma (FIG. 4D)
